± gives the uncertainty stated by the source.
assay: abundance fitness (aPCA) (normalised: wild type 0, dead -1); higher = more abundant; growth selection in yeast, the domain comes from the species named; conditions: Bacillus caldolyticus

Substance | abundance fitness
Cold shock protein CspB S24E, P41016 | 0.012 ± 0.053

same assay, conditions: Homo sapiens

Substance | abundance fitness
Scaffold attachment factor B1 A41M, Q15424 | -0.142 ± 0.061
Scaffold attachment factor B1 I77A, Q15424 | -0.157 ± 0.062
Scaffold attachment factor B1 R40S, Q15424 | -0.353 ± 0.062
Scaffold attachment factor B1 A64I, Q15424 | -0.109 ± 0.073
Scaffold attachment factor B1 E68R, Q15424 | -0.341 ± 0.051
Scaffold attachment factor B1 L43W, Q15424 | -1.09 ± 0.083
Scaffold attachment factor B1 R40A, Q15424 | -0.272 ± 0.065
Scaffold attachment factor B1 L39E, Q15424 | -0.753 ± 0.06
Scaffold attachment factor B1 E80K, Q15424 | -0.889 ± 0.25
Scaffold attachment factor B1 D49K, Q15424 | -0.275 ± 0.072
Scaffold attachment factor B1 D38G, Q15424 | -0.558 ± 0.051
Scaffold attachment factor B1 E80A, Q15424 | -0.055 ± 0.051
Scaffold attachment factor B1 R29I, Q15424 | -0.019 ± 0.062
Scaffold attachment factor B1 P72K, Q15424 | -0.423 ± 0.091
Scaffold attachment factor B1 G27F, Q15424 | -0.246 ± 0.12
Scaffold attachment factor B1 E74H, Q15424 | -0.608 ± 0.12
Scaffold attachment factor B1 R46L, Q15424 | -0.491 ± 0.063
Scaffold attachment factor B1 E74V, Q15424 | -0.157 ± 0.055
Scaffold attachment factor B1 E42H, Q15424 | -0.686 ± 0.12
Scaffold attachment factor B1 P72E, Q15424 | -0.302 ± 0.068
Scaffold attachment factor B1 L34R, Q15424 | -0.554 ± 0.053
Scaffold attachment factor B1 L57I, Q15424 | -0.32 ± 0.077

Substance | abundance fitness
Scaffold attachment factor B1 G27M, Q15424 | -0.09 ± 0.11
Scaffold attachment factor B1 S79A, Q15424 | -0.127 ± 0.065
Scaffold attachment factor B1 E59Y, Q15424 | -0.343 ± 0.095
Gamma-crystallin C A162C, P07315 | -0.092 ± 0.14
Scaffold attachment factor B1 L57M, Q15424 | -0.272 ± 0.074
Scaffold attachment factor B1 R46T, Q15424 | -0.845 ± 0.11
Scaffold attachment factor B1 K63T, Q15424 | -0.238 ± 0.081
Scaffold attachment factor B1 D49E, Q15424 | -0.346 ± 0.077
Scaffold attachment factor B1 D73E, Q15424 | -0.072 ± 0.067
Scaffold attachment factor B1 K63P, Q15424 | -0.61 ± 0.054
Scaffold attachment factor B1 E42M, Q15424 | -0.15 ± 0.074
Scaffold attachment factor B1 S55K, Q15424 | -0.229 ± 0.093
Scaffold attachment factor B1 T26G, Q15424 | -0.304 ± 0.071
Scaffold attachment factor B1 S79Y, Q15424 | -0.286 ± 0.078
Scaffold attachment factor B1 I77G, Q15424 | -0.195 ± 0.064
Scaffold attachment factor B1 L34Y, Q15424 | -0.316 ± 0.056
Scaffold attachment factor B1 L43Q, Q15424 | -0.911 ± 0.063
Scaffold attachment factor B1 T28S, Q15424 | -0.183 ± 0.055
Scaffold attachment factor B1 I77M, Q15424 | -0.305 ± 0.087
Scaffold attachment factor B1 I65D, Q15424 | -0.706 ± 0.077
Scaffold attachment factor B1 N53D, Q15424 | -0.038 ± 0.068
Scaffold attachment factor B1 I77K, Q15424 | -0.136 ± 0.073

Substance | abundance fitness
Scaffold attachment factor B1 N47D, Q15424 | -0.167 ± 0.085
Scaffold attachment factor B1 V36L, Q15424 | -0.063 ± 0.053
Scaffold attachment factor B1 E42Y, Q15424 | -0.619 ± 0.1
Scaffold attachment factor B1 D38A, Q15424 | -0.388 ± 0.056
Scaffold attachment factor B1 E68Q, Q15424 | -0.279 ± 0.049
Scaffold attachment factor B1 K62A, Q15424 | -0.073 ± 0.052
Scaffold attachment factor B1 A41W, Q15424 | -0.122 ± 0.049
Scaffold attachment factor B1 M58V, Q15424 | -0.114 ± 0.064
Scaffold attachment factor B1 I75A, Q15424 | -0.304 ± 0.071
Scaffold attachment factor B1 E74N, Q15424 | -0.366 ± 0.09
Scaffold attachment factor B1 E80G, Q15424 | -0.151 ± 0.085
Scaffold attachment factor B1 T26C, Q15424 | -0.22 ± 0.079
Scaffold attachment factor B1 N53W, Q15424 | -0.712 ± 0.059
Scaffold attachment factor B1 D33P, Q15424 | -0.726 ± 0.069
Scaffold attachment factor B1 S51H, Q15424 | -0.26 ± 0.11
Scaffold attachment factor B1 E66Y, Q15424 | -0.288 ± 0.075
Scaffold attachment factor B1 I75E, Q15424 | -0.459 ± 0.09
Scaffold attachment factor B1 A41K, Q15424 | -0.205 ± 0.068
Scaffold attachment factor B1 T28I, Q15424 | -0.038 ± 0.065
Scaffold attachment factor B1 I75P, Q15424 | -0.31 ± 0.084
Scaffold attachment factor B1 S55P, Q15424 | -0.429 ± 0.1
Scaffold attachment factor B1 D67C, Q15424 | -0.244 ± 0.063

Substance | abundance fitness
Scaffold attachment factor B1 E42V, Q15424 | -0.53 ± 0.053
Scaffold attachment factor B1 G70N, Q15424 | -0.511 ± 0.13
Scaffold attachment factor B1 E42C, Q15424 | -0.346 ± 0.063
Scaffold attachment factor B1 V56R, Q15424 | -0.121 ± 0.054
Scaffold attachment factor B1 V56S, Q15424 | -0.129 ± 0.049
Scaffold attachment factor B1 E59G, Q15424 | -0.153 ± 0.076
Scaffold attachment factor B1 E80N, Q15424 | -0.513 ± 0.43
Scaffold attachment factor B1 G69C, Q15424 | -0.431 ± 0.093
Scaffold attachment factor B1 E59H, Q15424 | -0.087 ± 0.063
Scaffold attachment factor B1 R29G, Q15424 | -0.18 ± 0.049
Scaffold attachment factor B1 L39G, Q15424 | -0.814 ± 0.052
Scaffold attachment factor B1 E76M, Q15424 | -0.2 ± 0.086
Scaffold attachment factor B1 L39D, Q15424 | -1.12 ± 0.13
Gamma-crystallin C R153W, P07315 | -0.775 ± 0.22
Scaffold attachment factor B1 E74A, Q15424 | -0.071 ± 0.067
Scaffold attachment factor B1 D67Y, Q15424 | -0.263 ± 0.13
Scaffold attachment factor B1 I75C, Q15424 | -0.28 ± 0.086
Scaffold attachment factor B1 L43E, Q15424 | -0.761 ± 0.08
Scaffold attachment factor B1 T78A, Q15424 | -0.345 ± 0.09
Scaffold attachment factor B1 D33W, Q15424 | -0.644 ± 0.062
Scaffold attachment factor B1 N71P, Q15424 | -0.365 ± 0.076
Scaffold attachment factor B1 D73R, Q15424 | -0.288 ± 0.056

Substance | abundance fitness
Scaffold attachment factor B1 K54I, Q15424 | -0.271 ± 0.077
Scaffold attachment factor B1 K54E, Q15424 | -0.207 ± 0.079
Scaffold attachment factor B1 D38Y, Q15424 | -0.913 ± 0.12
Scaffold attachment factor B1 E66F, Q15424 | -0.256 ± 0.061
Scaffold attachment factor B1 I65L, Q15424 | -0.143 ± 0.049
Scaffold attachment factor B1 E42D, Q15424 | -0.881 ± 0.099
Scaffold attachment factor B1 R46G, Q15424 | -0.84 ± 0.053
Scaffold attachment factor B1 L39S, Q15424 | -0.877 ± 0.056
Scaffold attachment factor B1 S55R, Q15424 | -0.083 ± 0.06
Scaffold attachment factor B1 R60T, Q15424 | -0.268 ± 0.081
Scaffold attachment factor B1 A41V, Q15424 | -0.105 ± 0.053
Scaffold attachment factor B1 L34F, Q15424 | -0.212 ± 0.06
Scaffold attachment factor B1 T26V, Q15424 | -0.417 ± 0.12
Scaffold attachment factor B1 S55T, Q15424 | -0.199 ± 0.071
Scaffold attachment factor B1 R60I, Q15424 | -0.551 ± 0.11
Scaffold attachment factor B1 V56I, Q15424 | -0.126 ± 0.067
Scaffold attachment factor B1 N53E, Q15424 | -0.198 ± 0.087
Scaffold attachment factor B1 A41N, Q15424 | -0.311 ± 0.1
Scaffold attachment factor B1 V56A, Q15424 | -0.101 ± 0.059
Scaffold attachment factor B1 S51T, Q15424 | -0.326 ± 0.081
Scaffold attachment factor B1 G27S, Q15424 | -0.092 ± 0.07
